The target in this data set is SARS-CoV-2 spike S1 protein (SARS-CoV-2, UniProt P0DTC2 13-685). In words: fluorescence recovery (target-induced release of the probe from Nb2C MXene quencher). Particulars: protein: recombinant.

B1: SARS-CoV-2 S-RBD aptamer (G-CDs@Apt) (ssDNA)
DNA: CAGCACCGACCTTGTGCTTTGGGAGTGCTGGTCCAAGGGCGTTAATGGACA
modifications: 5'-NH2-C6
Consider B1, for which the binding result is on record as “binds”.

The values are drawn from PMC11945200, “Aptamer Paper-Based Fluorescent Sensor for Determination of SARS-CoV-2 Spike Protein”.
